Laboratory results as given in patent US20160038607A1 (UNIVERSITY OF NOTRE DAME DU LAC, published 2016).
Bridges are numbered along the chain shown (N, C = ends). Where no end group is shown, it is not given here.

How the values were obtained:
[1] = target: T1, Human Epidermal Growth Factor Receptor 2 (HER2) (human, UniProt P04626 23-1255); experiment: flow cytometry, fluorescein labeled peptide on BT-474 cells, on ice
T1 construct: whole, on cells; also called HER2 receptor
Method: (§1) For HER2 expression assays, cells were incubated with primary antibody in binding buffer on ice for 1 hour and washed twice. Fluorescein conjugated secondary antibody was added for 1 hour on ice, samples were washed, and analyzed on Guava easyCyte 8HT flow cytometer (Millipore). Isotype matched antibodies were used as negative controls. For cell-based peptide binding assays, cells were incubated with increasing concentrations of fluorescein-conjugated peptides for 2 hours on ice. Samples were washed twice and analyzed on Guava easyCyte 8HT flow cytometer.

[2] = target: T1, Human Epidermal Growth Factor Receptor …; experiment: flow cytometry, fluorescein labeled peptide on SK-BR-3 cells, on ice
Method: as §1

[3] = target: T1, Human Epidermal Growth Factor Receptor …; experiment: cell-based or functional assay

| Kd [1] | Kd [2] | cellular uptake of liposomes at 2% peptide density, fold enhancement [3] | cellular uptake of liposomes by BT-474 and SK-BR-3 cells, 3 h (flow cytometry), fold greater than control [3] | cellular uptake of liposomes by BT-474 cells at 24 h, fold greater than control liposomes [3] | cellular uptake of liposomes by SK-BR-3 cells at 24 h, fold greater than control liposomes [3] | Binder |
| --- | --- | --- | --- | --- | --- | --- |
| 1970 nM | 1750 nM |  |  |  |  | YCDGFYACYMDV (disulfide 2-8 (inferred); also: fluorescein label, position not given here) [HER2-antagonist peptide (HER2-pep), fluorescein labeled] |
|  |  | ~10 fold | ~9 fold | ~5 fold | ~4 fold | YCDGFYACYMDV (disulfide 2-8 (inferred); not fully specified (N-terminus); also: displayed on PEG350-coated liposomes) [HER2-pep-EG12-PA conjugate on PEG350 coated liposomes (95:10:3:2 HSPC:CHOL:PEG350:HER2-pep)] |
